From the Human Domainome abundance scans (Beltran et al. 2025) come the findings set out here.

Sequences and labels used below:
B1: CD2-associated protein, residues 109 to 169; numbered along this chain, Q9Y5K6 (parent)
chain: KKRQCKVLFEYIPQNEDELELKVGDIIDINEEVEEGWWSGTLNNKLGLFPSNFVKELEVTD

± gives the uncertainty stated by the source.

Variants of B1 are the subject of this series. The series is described as follows: abundance fitness (aPCA) (normalised: wild type 0, dead -1); higher = more abundant; growth selection in yeast, the domain comes from the species named. The following applies: Homo sapiens.
With KKRQCKVLFEYIPQNEDELELKVGDIIDINEEYEEGWWSGTLNNKLGLFPSNFVKELEVTD, the abundance fitness was -0.349 ± 0.4. As for KKRQCKVLFEYIPQNEDELELKVGDIIDINEETEEGWWSGTLNNKLGLFPSNFVKELEVTD, the figure is -0.452 ± 0.24; as for KKRQCKVLFEYIPQNEDELELKVGDIIDINEESEEGWWSGTLNNKLGLFPSNFVKELEVTD, -0.186 ± 0.16; as for KKRQCKVLFEYIPQNEDELELKVGDIIDINEEVEEHWWSGTLNNKLGLFPSNFVKELEVTD, -0.375 ± 0.09.

With KKRQCKVLFEYIPQNEDELELKVGDIIDINEEVEENWWSGTLNNKLGLFPSNFVKELEVTD, the abundance fitness was -0.004 ± 0.085. Under KKRQCKVLFEYIPQNEDELELKVGDIIDINEEVEEMWWSGTLNNKLGLFPSNFVKELEVTD stands -0.201 ± 0.12.

As to KKRQCKVLFEYIPQNEDELELKVGDIIDINEEVEEIWWSGTLNNKLGLFPSNFVKELEVTD, the abundance fitness was -0.605 ± 0.11. Under KKRQCKVLFEYIPQNEDELELKVGDIIDINEEVEECWWSGTLNNKLGLFPSNFVKELEVTD stands -0.467 ± 0.089; under KKRQCKVLFEYIPQNEDELELKVGDIIDINEEVEEEWWSGTLNNKLGLFPSNFVKELEVTD, 0.041 ± 0.23; under KKRQCKVLFEYIPQNEDELELKVGDIIDINEEVEEPWWSGTLNNKLGLFPSNFVKELEVTD, -0.939 ± 0.25. Regarding KKRQCKVLFEYIPQNEDELELKVGDIIDINEEVEEDWWSGTLNNKLGLFPSNFVKELEVTD, the abundance fitness is -0.178 ± 0.079. Under KKRQCKVLFEYIPQNEDELELKVGDIIDINEEVEEAWWSGTLNNKLGLFPSNFVKELEVTD stands -0.357 ± 0.087. As for KKRQCKVLFEYIPQNEDELELKVGDIIDINEEVEEKWWSGTLNNKLGLFPSNFVKELEVTD, the figure is -0.278 ± 0.21. Under KKRQCKVLFEYIPQNEDELELKVGDIIDINEEVNEGWWSGTLNNKLGLFPSNFVKELEVTD stands -0.337 ± 0.44; under KKRQCKVLFEYIPQNEDELELKVGDIIDINEEVQEGWWSGTLNNKLGLFPSNFVKELEVTD, -0.147 ± 0.23. As to KKRQCKVLFEYIPQNEDELELKVGDIIDINEEVLEGWWSGTLNNKLGLFPSNFVKELEVTD, the abundance fitness was -0.611 ± 0.28.

As to KKRQCKVLFEYIPQNEDELELKVGDIIDINEEVDEGWWSGTLNNKLGLFPSNFVKELEVTD, the abundance fitness was -0.3 ± 0.15. As for KKRQCKVLFEYIPQNEDELELKVGDIIDINEEVWEGWWSGTLNNKLGLFPSNFVKELEVTD, the figure is -0.347 ± 0.15; as for KKRQCKVLFEYIPQNEDELELKVGDIIDINEEVIEGWWSGTLNNKLGLFPSNFVKELEVTD, -0.247 ± 0.21; as for KKRQCKVLFEYIPQNEDELELKVGDIIDINEEVSEGWWSGTLNNKLGLFPSNFVKELEVTD, 0.016 ± 0.11. As for KKRQCKVLFEYIPQNEDELELKVGDIIDINEEVKEGWWSGTLNNKLGLFPSNFVKELEVTD, the figure is 0.299 ± 0.3; as for KKRQCKVLFEYIPQNEDELELKVGDIIDINEEVFEGWWSGTLNNKLGLFPSNFVKELEVTD, -0.393 ± 0.3; as for KKRQCKVLFEYIPQNEDELELKVGDIIDINEEVMEGWWSGTLNNKLGLFPSNFVKELEVTD, -0.045 ± 0.19. As for KKRQCKVLFEYIPQNEDELELKVGDIIDINEEVGEGWWSGTLNNKLGLFPSNFVKELEVTD, the figure is -0.067 ± 0.16. In the case of KKRQCKVLFEYIPQNEDELELKVGDIIDINEEVAEGWWSGTLNNKLGLFPSNFVKELEVTD, the abundance fitness is -0.167 ± 0.15.

Turning to KKRQCKVLFEYIPQNEDELELKVGDIIDINEEVYEGWWSGTLNNKLGLFPSNFVKELEVTD, the abundance fitness is -0.126 ± 0.22. Regarding KKRQCKVLFEYIPQNEDELELKVGDIIDINEEVHEGWWSGTLNNKLGLFPSNFVKELEVTD, the abundance fitness was 0.179 ± 0.14. As for KKRQCKVLFEYIPQNEDELELKVGDIIDINEEVTEGWWSGTLNNKLGLFPSNFVKELEVTD, the figure is 0.008 ± 0.11; as for KKRQCKVLFEYIPQNEDELELKVGDIIDINEEVVEGWWSGTLNNKLGLFPSNFVKELEVTD, -0.05 ± 0.13. Under KKRQCKVLFEYIPQNEDELELKVGDIIDINEEVEAGWWSGTLNNKLGLFPSNFVKELEVTD stands -0.226 ± 0.2; under KKRQCKVLFEYIPQNEDELELKVGDIIDINEEVEPGWWSGTLNNKLGLFPSNFVKELEVTD, -0.139 ± 0.22; under KKRQCKVLFEYIPQNEDELELKVGDIIDINEEVERGWWSGTLNNKLGLFPSNFVKELEVTD, -0.15 ± 0.12. Under KKRQCKVLFEYIPQNEDELELKVGDIIDINEEVEKGWWSGTLNNKLGLFPSNFVKELEVTD stands -0.352 ± 0.17; under KKRQCKVLFEYIPQNEDELELKVGDIIDINEEVETGWWSGTLNNKLGLFPSNFVKELEVTD, -0.185 ± 0.15; under KKRQCKVLFEYIPQNEDELELKVGDIIDINEEVEMGWWSGTLNNKLGLFPSNFVKELEVTD, -0.169 ± 0.25. For KKRQCKVLFEYIPQNEDELELKVGDIIDINEEVEQGWWSGTLNNKLGLFPSNFVKELEVTD, the abundance fitness was -0.153 ± 0.19. As for KKRQCKVLFEYIPQNEDELELKVGDIIDINEEVEYGWWSGTLNNKLGLFPSNFVKELEVTD, the figure is -0.395 ± 0.3. As for KKRQCKVLFEYIPQNEDELELKVGDIIDINEEVENGWWSGTLNNKLGLFPSNFVKELEVTD, the figure is -0.12 ± 0.26; as for KKRQCKVLFEYIPQNEDELELKVGDIIDINEEVEVGWWSGTLNNKLGLFPSNFVKELEVTD, -0.15 ± 0.098; as for KKRQCKVLFEYIPQNEDELELKVGDIIDINEEVELGWWSGTLNNKLGLFPSNFVKELEVTD, -0.452 ± 0.13. Under KKRQCKVLFEYIPQNEDELELKVGDIIDINEEVECGWWSGTLNNKLGLFPSNFVKELEVTD stands 0.015 ± 0.15; under KKRQCKVLFEYIPQNEDELELKVGDIIDINEEVEDGWWSGTLNNKLGLFPSNFVKELEVTD, -0.146 ± 0.33; under KKRQCKVLFEYIPQNEDELELKVGDIIDINEEVEHGWWSGTLNNKLGLFPSNFVKELEVTD, -0.318 ± 0.35.

As for KKRQCKVLFEYIPQNEDELELKVGDIIDINEEVESGWWSGTLNNKLGLFPSNFVKELEVTD, the abundance fitness stood at 0.213 ± 0.13.
